The data set is described as follows: soluble fraction after stress (log2 fold change); higher = more stays soluble; pooled small domains, quantitative proteomics. The settings on record: stress: 75 degC.
“HMQSEISRIGRILKERRLQLGYTQEYAAEKAGISYSYYTKIERGQQLPSLEVAMVLSKTFSLSMDRWL”: the “soluble fraction (log2)” value was -4.78.
In the case of “HMQSFIEELLPVVDNFERSLAVVDPSDEIKNFLKGYEMIYNQLMEVLKSQGVEVIKTEGEEFDPNFHQA”, the “soluble fraction (log2)” value was -0.121.
With “HMQSHIVPDVKSQHIAQAKALLESKQMKAVVIDSNFVKGLPAGIVLDQTPIGGARVKENRTIYLTINTL”, the “soluble fraction (log2)” value was -1.56.
Regarding “HMQSMEIDENEIPSIDKLSEYIEYFKRIYNALFDDKQLAITNIDVLERHFANNFNTLRFKMDE”, the “soluble fraction (log2)” value was 0.169.
The value for “HMQSNDAGELEAVVKGIIDANPKVVADYLAGNQKVVSFFVGQAMKATKGKANPKMVSEILGKLL” was -0.0975.
Next, “HMQSQIAQLYNPLLGYVKKRINSREDAEDLTQDIFLKLSKSNKDGVDNLKSWLYTIAKNTITDYYRKKKII”: -0.0844; “HMQSREISYSDFVASVERGEVATVILDGENIRFKGGDNVEYVTVRPADTNVTDLLIENQVVVRAEK”: 0.231; “HMQSTVSTHQKTLALDTAQSGIPVFPVSSTHKRPLTDHGYKDATADADAVRKIWQQFPSAFV”: 0.28.
Consider “HMQSVKTQPLRDWLLAHFDKPYPDDEDKVRLAEASGMTRAQVGNWFINARVRTWRPMVLDLGEEIERESV”, for which the “soluble fraction (log2)” value was -0.325.
Consider “HMQTEFVISSGEQPKRLDVFLLQREPYLSRAALQRMIAAGWVRVNNHLAKSSQRIKAGDVIVFD”, for which the “soluble fraction (log2)” value was -1.42.
In the case of “HMQTFGTMIAALRKEQGMTQLELAEKMGVTDKAVSKWERDLSFPDVNSLPKLAEIFHVSVDEL”, the “soluble fraction (log2)” value is -0.16.
Regarding “HMQTLGADLRALRKARGLTLTDMAETLGRSVGWLSQVERDLSEPSITDLRHMARTLGVSVSMLFS”, the “soluble fraction (log2)” value was -1.52.
The value for “HMQTLQNNLKQIRSRVGLTQGELASRAGISRQAYSTLESGNANPSTEVSLRLAEALNERIESLFFLANQ” was -0.495; that for “HMQTSETVYTTDKVNVRAGADTSSDKLGSVEKGTSLTRTGTDGDWSIIDYNGTTGYIKSEYLSATAPE” was 0.566; that for “HMQTTKTGTITASSLYVRSGASTSHKVLGTVSKGKTVQIKDTQDGWHKISYNGDHGWVSGKYVSTT” was 0.226.
Next, “HMQTTVHLSPEEMVIMNALKQESPIDLPILRAQVEMSNKLWDTSMKNLSKLGQLKVEKIGEQVSVSLI”: -0.582.
Consider “HMQVAPDLMQRLTSQGHVDEKLSDALVHARQITNFEGRRRQMQFIGKLMRKLSEESIEAVKDALNEQRM”, for which the “soluble fraction (log2)” value is -0.313.
The value for “HMQVDENNINKRIDKYLSENTEYSRSTIQKMIDNGNITVNSKPTKSSYKLELNDIITIDNNFKE” was 0.0359; that for “HMQVEYTRGELIQDLEGGKIVYAGISPSRETPTGEVNFILDSGLTRTLYVTDVSEIEQLLISYDIDPEVKK” was -0.0196; that for “HMQVFDSNEIDEVVKKVIENNPQAVADFKKGKSNALQFLAGQVMRETKGRFNPNVVQERIRLLLT” was 0.671.
The value for “HMQVLLTRREKEILKLIAEGLTSAEIGKRLFISTTTVDTHRKHLLEKLKAGNTAILIKTAVQLDLI” was -2.53; that for “HMQVPWYQRLKEKRLEYGVSQNKLATHIGISRQYMSEIETGKVTPSDSLQATLFDILEQFNPDA” was -0.817.
Next, “HMQVRVERSRDKVVISGVNYYIHPVRKGETVYSIARAYGITTQDLVRENPSAAEGLKEGQSIRIPERLVD”: -0.438; “HMQVSDEGPIKAILQEVLDKSPTQLADYASGKVKLRQYFFGEAMKALKGKANPQVINKLLDEMLPPVAA”: -0.0324.
Turning to “HMQVSDVTELRTILEKVITENESVATEFKEGKDAAMNFLVGQGMKATRGAADPALLKEIITGIL”, the “soluble fraction (log2)” value is -0.0525.
Consider “HMQVSITGYLGGEKIGLFDDAKFKALAAKQGIAIDYRKAGSPAMMDADRKGMDYLFPSSRAAVEYGNAKGV”, for which the “soluble fraction (log2)” value was -0.00209.
Next, “HMQVTDTGTIEGEIDKVLAANPDRVTEYHDGKEKILGWFVGQVMQTTKGKANPQMVNQLFLEKLK”: 0.0105.
Consider “HMQVTPQVLRLLDVLGDKELSLRQIAEALGLSDRKNIMRNYVVPALDSGRVVRTVPNKPNSRFQKYRK”, for which the “soluble fraction (log2)” value was -0.739.
The value for “HMQYDALVLNLLQEKNLTSESLKDAQRAFAKSHNLSTLPSKSQILQAYFQLLEQGKIEKNPDFELLL” was -0.394; that for “HMQYFDIETEIQKFIKSENNLSDFDKETLQSFLYQLSKGSPEENTAKKVVDILNKFLPLTTAIINMIKALT” was 0.0503.
Next, “HMQYYITKIANYDQVSPNLLVRTAEGQYMVKTNADILDTDVTKLTEEEIRKDWGYLFENGFSELV”: -0.498.
The value for “HMRAAEPTTDAQRDRRRRIVLTAMTMLQERGYDEIQMRDVAQQAGVALGTLYRYFPSKEQLFAHVLVE” was -1.71.
Consider “HMRAAFEHLTIGQTVSGLVKSQARGVSLVEIEGQTVAMRLPQPVAVGDTLRLRFAGHMPQPVFLLDT”, for which the “soluble fraction (log2)” value was -1.59.
In the case of “HMRADYVGGLDPAGDNFLALRTGPGSGYAMILPMGPGTFVTVLRRNGKWLLVELEDGTRGWAYGSYILG”, the “soluble fraction (log2)” value was -2.32.
As to “HMRAGALTTLTERERNVFDLVVTGHSNPEIARQLSIADVTVKTHVGHILSKLGVRDRVHLVIWAHRQGLAD”, the “soluble fraction (log2)” value is -2.84.
Regarding “HMRAMWENLFFQYKEGFLPEEYYKQGIATGIRLAGPKFVEMNIPMQKEFEDEVHRLLAEHEKSVK”, the “soluble fraction (log2)” value is -0.914.
Consider “HMRASVTYVVQVNGKLRGKLEVAPDIDPEELKKLALEVENVKHSLQGWTVKKVIVIPGKMVSIAAGK”, for which the “soluble fraction (log2)” value is -1.78.
The value for “HMRAVEGKRLKRLLRTNLIAIERDQILQYPLRKRPLAIVTRAVRATNPDAVIVNDAGDDVFARALDVLLAS” was -1.44.
In the case of “HMRDAKSQLQEALQKSGRLPEYELVSVEGPPHAPVFTYRVRIDGAVVGEGQGASKQAAQQAAAQSALKSG”, the “soluble fraction (log2)” value is 0.0311.
The value for “HMRDDAIQQGREIVERELHRLDLAYTTLTDVLAKLEYEKLDDLYAAVGFGIRSPHSVAAAALQVERDKA” was -0.322; that for “HMRDGHEQLQGVLSAIKFHQANFLIGVLDDGTTVKGNMLSPQVGLEYTFRGRRERHPRWGEQFAFMDYRV” was -3.31; that for “HMRDIGKNIRYYREKKGYSQEQLAQLLFVTRQTVSNYETSRSRPDVETLVKLAGLLDIDVTDLIYGPR” was -2.74.
Next, “HMRDKSITFSEFVKLLDEGQIQKVTLTGNEILGTQKSGDKFRTYAPPQYEGLGNKLVERSVEVTAKE”: 0.378.
As to “HMRDLVTYVVQVNGKLRGKLEVSPSTDDNSLKTMALELENVQRALEGLSVKKVIVIPGKMVSIAAG”, the “soluble fraction (log2)” value was -0.972.
With “HMRDVVVVPDLSGLTQMEALSKLDAESLNIGEINYGVSEMPEGVIFKQDPVYGTELMKGDTVDIFISGR”, the “soluble fraction (log2)” value is -0.423.
As for “HMRDYKTHLQEVLQSKGEVNIWYKLIDEKGPDHNKKFVMQVGIDSKILGFGEGKSKKEAEQVAARKALDNI”, the “soluble fraction (log2)” value was -0.384.
The value for “HMREGIQLGDPVRVIRDPLFGKIGAVSGLPSELRAIPTESEVRVLEVRFPDGTTTVVPRANIEVIEG” was 0.487; that for “HMREIEVNYAAGDSVRVIDGPLAGFIGVVSSVEPDKNKVNVTVSMFGRETPVELELDQVETLD” was 0.111; that for “HMREISSDELHSLFSADQRGDLVINETTRLSIEKLYALHTPEEREAKVNELSGVLPSEAHRQLVHFLDYFD” was -1.42.
As for “HMREITVEELYELEGIRIVGTIPGISAWVAESGRQMVFLVGQKVKGHDLLEVGESRVVLRKGDSVVNVLL”, the “soluble fraction (log2)” value was -1.56.

(Values after the domain aggregation screens of Martell et al. (2025).)
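Also: 20 min heating vs room temperature control held 20 min.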
